Target: the molecule itself
Assay: AUC; sedimentation velocity; 30 µM unphosphorylated protein in 50 mM HEPES pH 7.5, 100 mM NaCl; 45,000 rpm; c(s) analysis with SEDFIT; monomer and dimer peaks

B1: MST4 kinase domain (residues 1-300), unphosphorylated (domain or fragment)
chain: not shown
notes: MST4 (mammalian Ste20-like kinase 4), human, residues 1-300 with the kinase domain, cloned from a Mammalian Gene Collection clone into pLIC-SGC1; Phosphorylation was removed with lambda-phosphatase; also called mammalian Ste20-like kinase 4; source: E. coli BL-21(DE3)-R3-pRARE2, purified (Ni-NTA, TEV cleavage, lambda-phosphatase, Superdex 200 SEC, MonoQ); not shown: His6, N-terminal, cleaved
  stoichiometry N: 2

— PMC2920948, “Structural Comparison of Human Mammalian Ste20-Like Kinases” (PLoS ONE, 2010)
